Assay results taken from patent publication US20070243589A1 (Pfizer, published 2007).

Legend:
[1] = molecular target: T1, human IL-22 (human, UniProt Q9GZX6 34-179); experiment: cell-based or functional assay
T1 sequence: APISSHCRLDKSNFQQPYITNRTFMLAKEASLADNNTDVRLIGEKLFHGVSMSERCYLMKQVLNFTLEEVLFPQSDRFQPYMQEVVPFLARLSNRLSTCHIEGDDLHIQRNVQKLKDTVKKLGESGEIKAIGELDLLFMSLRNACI

[2] = molecular target: T2, BSA (bovine, UniProt P02769); experiment: ELISA: wells labelled BSA, IgG at 1 µg/ml, HRP anti-human IgG, A450
T2 construct: background wells labelled BSA; also called bovine serum albumin
Experimental: (§1) Cross species reactivity of germlined and non-germlined optimized antibodies were determined as follows: ELISA plates (Costar, Cat. #3590) were coated overnight with 1 μg/ml of rat, mouse, or human IL-22 or human IL-26 in PBS buffer. Plates were washed with PBST buffer (0.05% Tween20 in PBS) 3 times, then blocked with 1% BSA (Sigma A8918)/PBST for 1 hr at RT. Antibodies were added at 1 μg/ml, incubated 1 hr at 25° C. […] The plates were incubated for 1 hour at 25° C., then washed with PBST, and developed with TMB (KPL, Cat. #50-76-04). Reaction was stopped with 0.18 M H₂S0₄. Plates were read at OD 450 nm.

[3] = molecular target: T3, murine IL-22 (murine, UniProt Q9JJY9 34-179); experiment: ELISA: plate coated with 1 µg/ml antigen, IgG at 1 µg/ml, HRP anti-human IgG, A450
T3 construct: also called mouse IL-22
T3 sequence: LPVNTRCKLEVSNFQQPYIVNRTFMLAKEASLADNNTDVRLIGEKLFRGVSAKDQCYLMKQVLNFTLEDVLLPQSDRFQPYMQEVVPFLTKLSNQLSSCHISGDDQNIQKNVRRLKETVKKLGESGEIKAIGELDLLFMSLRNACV
Experimental: as §1

[4] = molecular target: T4, IL-26 (human, UniProt Q9NPH9); experiment: ELISA: plate coated with 1 µg/ml human IL-26, IgG at 1 µg/ml, HRP anti-human IgG, A450
T4 construct: coated on the ELISA plate at 1 µg/ml; also called human IL-26
T4 sequence (cytokine, looked up): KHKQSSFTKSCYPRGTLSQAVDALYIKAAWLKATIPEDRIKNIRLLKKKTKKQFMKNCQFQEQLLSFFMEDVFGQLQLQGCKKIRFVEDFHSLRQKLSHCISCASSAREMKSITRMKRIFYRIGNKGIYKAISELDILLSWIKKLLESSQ
Experimental: as §1

[5] = molecular target: T5, biotinylated IL-22 with an N-terminal His/FLAG tag (bio.IL-22H/F) (human, UniProt Q9GZX6 34-179, biotinylated (site not stated)); experiment: DELFIA competition assay: scFv titrated against bio.IL-22H/F binding to the captured IL-22 receptor complex
T5 construct: not shown: N-terminal His/FLAG tag
T5 sequence: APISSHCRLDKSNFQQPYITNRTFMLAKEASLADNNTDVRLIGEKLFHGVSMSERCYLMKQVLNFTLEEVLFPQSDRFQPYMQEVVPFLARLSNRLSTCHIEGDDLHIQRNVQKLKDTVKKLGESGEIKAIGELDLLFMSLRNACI
Experimental: (§2) Microtiter plates were coated with an IL-22 receptor complex antibody (1 μg/ml in PBS), and incubated for 1.5 hours at room temperature. Plates were washed three times in PBST, and blocked for 1 hour at room temperature with 2% MPBS. After a further 3 washes, diluted cell conditioned medium containing an IL-22 receptor complex was added and incubated overnight at 4° C. Crude scFv supernatants were prepared as described above. The following day, 25 μl of diluted scFv sample and 25 μl of bio.IL-22H/F (6 ng/ml) were added to the washed plates, and incubated for 1.5 hours at room temperature. Plates were washed 3 times in PBST, then binding of bio.IL-22H/F to the IL-22 receptor complex was detected with Europium-Streptavidin and the DELFIA® reagent kit (PerkinElmer). Time Resolved Fluorescence was measured using a Victor 2™ Plate Reader (Perkin Elmer).
(§3) Purified scFv from positive clones identified from the screening were tested in the DELFIA® IL-22 receptor complex competition assay as described above. A titration of scFv concentrations was used in order to establish the clone potency as measured by IC₅₀ values in the assay. Fourteen optimized clones were designated 097D09, 062A09, 062G05, 087B03, 367D04, 368D04, 166B06, 166G05, 375G06, 376B10, 354A08, 355B06, 355E04, and 356A11.

[6] = molecular target: T1, human IL-22; experiment: cell-based or functional assay; remark: listed apart in the source
[7] = molecular target: T5, biotinylated IL-22 with an N-terminal …; experiment: biotinylated IL-22 binding IL-22 receptor complex competition assay, purified scFv, parent
Experimental: as §2
(§4) Sequence data for the six parent clones was used to identify the nearest germline sequence for the heavy and light chain of each clone. Appropriate mutations were made using standard site directed mutagenesis techniques with the appropriate mutagenic primers. Mutation of sequences was confirmed by sequence analysis. Purified scFv from the germlined parent clones were tested in the biotinylated IL-22 binding IL-22 receptor complex competition assay as described earlier, in order to establish the clone potency as measured by IC₅₀ values in the assay.

[8] = molecular target: T5, biotinylated IL-22 with an N-terminal …; experiment: IL-22 receptor complex inhibition assay (bio.IL-22H/F binding to IL-22 receptor complex, DELFIA), scFv
Experimental: (§5) Both the IL-22/IL-22R binding assay (described above) and the IL-22/IL-22 receptor complex assay (described below) were used. ScFv concentrations were titrated in order to establish the clone potencies as measured by assay IC₅₀ values. These were determined using GraphPad Prism software and four-parameter logistic equation curve fitting.
as §2

[9] = molecular target: T5, biotinylated IL-22 with an N-terminal …; experiment: DELFIA competition assay: scFv titrated against bio.IL-22H/F binding to the captured IL-22 receptor complex; remark: listed apart in the source
Experimental: as §5, §2

[10] = molecular target: T5, biotinylated IL-22 with an N-terminal …; experiment: as above; remark: listed apart in the source
Experimental: as §2, §3

[11] = molecular target: T5, biotinylated IL-22 with an N-terminal …; experiment: biotinylated IL-22 binding IL-22 receptor complex competition assay, purified scFv, fully germlined
Experimental: as §2, §4

T2 sequence (P02769 25-607 limits assumed): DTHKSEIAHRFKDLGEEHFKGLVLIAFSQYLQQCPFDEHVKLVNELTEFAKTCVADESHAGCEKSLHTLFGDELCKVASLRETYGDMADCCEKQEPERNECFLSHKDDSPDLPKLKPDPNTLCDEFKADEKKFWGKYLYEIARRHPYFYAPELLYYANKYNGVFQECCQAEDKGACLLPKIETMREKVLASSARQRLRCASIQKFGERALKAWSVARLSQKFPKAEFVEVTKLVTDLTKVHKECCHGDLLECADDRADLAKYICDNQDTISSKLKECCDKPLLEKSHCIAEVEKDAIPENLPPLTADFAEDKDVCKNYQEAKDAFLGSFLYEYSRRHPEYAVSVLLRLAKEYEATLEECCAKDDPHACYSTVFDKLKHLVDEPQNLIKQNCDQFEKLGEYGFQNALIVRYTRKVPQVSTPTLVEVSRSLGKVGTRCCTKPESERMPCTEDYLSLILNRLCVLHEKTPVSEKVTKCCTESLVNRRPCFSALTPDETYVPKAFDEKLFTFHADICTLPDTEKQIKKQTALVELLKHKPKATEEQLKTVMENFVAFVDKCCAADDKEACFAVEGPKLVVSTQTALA

B1: 368D04 IgG (non-germlined) (antibody, V domains shown)
VH: EVQLVESGGGVVRPGGSLRLSCAASGFTFDDYGMNWVRQAPGKGLEWVSGVNWNGGTRDYAASVKGRFTISRDNAKNSLYLQMNSLRAEDTALYYCARGWYSGAAWNMGYWGRGTLVTVSS
VL: QAVLTQPSSVSGSPGQSITISCTGASGDVGAYNFVSWYQQHPGKTPKLIIYDVNKRPSGVSNRFSGSKSGNTASLTISGLQAEDESDYYCASLVSDFSVVFGGGTKVTVLG
IC50 of IgG in BaF3-IL-22 proliferation assay [1]: 0.127 nM | binding result [2]: no binding (tested: 1 µg/ml (single concentration)) | binding result [3]: binds | binding result [4]: no binding (tested: 1 µg/ml (single concentration))

B2: 166B06 scFv (non-germlined) (scFv)
scFv: EVQLVQSGAEVKKPGASVKVSCQASGYTFSDYYIHWVRQTPGQGFEWMGWVNPDTGGTRYAQKFQGWVTMTRDMSNTTAYMELPRLRDDDTAVYYCARDLTGFDPFDIWGQGTLVTVSSGGGSSGGGGSGGGGSAQSVLTQPPSVSVAPGKTATITCGGNNFRNKRVHWYQQRPGQAPVLVIYYDSDRPSGIPERFSGSRSGNTATLTISRVEAGDEADFYCQVWDLFNDNGVFGGGTKLTVLGAAAH
notes: Optimized clone derived from GIL68
IC50 of scFv in BaF3-IL-22 proliferation assay [1]: 0.46 nM | IC50 [5]: 0.62 nM

B3: 097D09 IgG (non-germlined) (antibody, V domains shown)
VH: EVQLVESGGGLVTPGGSLRLSCAASGFTFSDYYMSWVRQAPGRGLEWVSAISGSGGSTYYADSVKGRITISRDNAKNSLYLQMSSLRSEDTAVYYCARGLWVWDPLDYWGRGTLVTVSS
VL: DIQMTQSPSTLSASIGDRVTITCRASEGIYHWLAWYQQKPGKAPKLLIYKASSLASGAPSRFSGSGFGTDFTLTISSLQPDDFATYYCQQYSEFAWTFGGGTKLEIKR
notes: IgG
IC50 of IgG in BaF3-IL-22 proliferation assay [1]: 0.197 nM | binding result [2]: no binding (tested: 1 µg/ml (single concentration)) | binding result [3]: no binding (tested: 1 µg/ml (single concentration)) | binding result [4]: no binding (tested: 1 µg/ml (single concentration))

B4: 355B06 germlined IgG (antibody, V domains shown)
VH: QVQLVQSGAEVKKPGASVKVSCKASGYTFTDYYMHWVRQAPGQGLEWVGWINPYTGSAFYAQKFRGRVTMTRDTSISTAYMELSRLRSDDTAVYYCAREPEKFGESSGQLWGRGTLVTVSS
VL: QAVLTQPPSVSGAPGQRVTISCTGSSSNIGAGYGVHWYQQLPGTAPKLLIYGDSNRPSGVPDRFSGSKSGTSASLAITGLQAEDEADYYCQSYDSGLSGYVFGGGTQLTVLG
IC50 of IgG in BaF3-IL-22 proliferation assay [1]: 0.092 nM | IC50 (pM) of germlined IgG in BaF3-IL-22R proliferation assay [6]: 92 pM | binding result [2]: no binding (tested: 1 µg/ml (single concentration)) | binding result [3]: binds | binding result [4]: no binding (tested: 1 µg/ml (single concentration))

B5: 355E04 germlined IgG (antibody, V domains shown)
VH: QVQLVQSGAEVKKPGASVKVSCKASGYTFTHYYMHWVRQAPGQGLEWVGWINPYTGGAFYAQKFQGRVTMTRDTSISTAYMELSRLRSDDTAVYYCAREPEKFDSPNAEIWGRGTLVTVSS
VL: QAVLTQPPSVSGAPGQRVTISCTGSSSNIGAGYGVHWYQQLPGTAPKLLIYGNSNRPSGVPDRFSGSKSGTSASLAITGLQAEDEADYYCQSYDSSLSGYVFGGGTQLTVLG
IC50 of IgG in BaF3-IL-22 proliferation assay [1]: 0.1 nM | IC50 (pM) of germlined IgG in BaF3-IL-22R proliferation assay [6]: 100 pM | binding result [2]: no binding (tested: 1 µg/ml (single concentration)) | binding result [3]: binds | binding result [4]: no binding (tested: 1 µg/ml (single concentration))

B6: GIL68 scFv (non-germlined parent) (scFv)
scFv: EVQLVQSGAEVKKPGASVKVSCQASGYTFSDYYIHWVRQTPGQGFEWMGWVNPDTGGTRYAQKFQGWVTMTRDMSNTTAYMELPRLRDDDTAVYYCARDLTGFDPFDIWGQGTLVTVSSGGGGSGGGGSGGGGSAQSVLTQPPSVSVAPGKTATITCGGNNFRNKRVHWYQQRPGQAPVLVIYYDSDRPSGIPERFSGSRSGNTATLTISRVEAGDEADFYCQVWDSSTDRPLFGGGTKLTVLGAAA
IC50 [7]: 9 nM | IC50 [8]: 7 nM | IC50 [9]: 10 nM | IC50 [10]: 7.45 nM | IC50 [5]: 10.6 nM

B7: GIL92 scFv, fully germlined (scFv)
scFv: QVQLVQSGAEVKKPGASVKVSCKASGYTFTDYYMHWVRQAPGQGLEWVGWINPYTGGAFYAQKFRGRVTMTRDTSISTAYMELSRLRSDDTAVYYCAREPEKFDFWGGDNWGRGTLVTVSSGGGGSGGGGSGGGGSAQAVLTQPPSVSGAPGQRVTISCTGSSSNIGAGYGVHWYQQLPGTAPKLLIYGNSNRPSGVPDRFSGSKSGTSASLAITGLQAEDEADYYCQSYDSSLSGYVFGGGTQLTVLSA
IC50 [11]: 40 nM
